This passage reports IC50 results from patent US20140087995A1 (published 2014).

A word on the IC50: it is the concentration that inhibits the measured activity by half.

Numbered stars: 1 amine (or outer) side, 2 acyl side, 3 side chain; on linkers, the order of the positions; unused ones are H or OH. Bridge positions count the residues as written; N and C are the ends. Side chains are listed from the residue outwards. Ends that are not written are not given here. * marks the point of attachment. C20 diacid = O=C(O)CCCCCCCCCCCCCCCCCCC(=O)*; γGlu = O=C(O)[C@H](CCC(=O)[*:2])N[*:1]; AEEA = NCCOCCOCC(=O)O

T1: human calcitonin receptor (human, UniProt P30988 25-474)
T1 construct: whole, on cells; also called hCTR; hCT
T1 sequence (looked up): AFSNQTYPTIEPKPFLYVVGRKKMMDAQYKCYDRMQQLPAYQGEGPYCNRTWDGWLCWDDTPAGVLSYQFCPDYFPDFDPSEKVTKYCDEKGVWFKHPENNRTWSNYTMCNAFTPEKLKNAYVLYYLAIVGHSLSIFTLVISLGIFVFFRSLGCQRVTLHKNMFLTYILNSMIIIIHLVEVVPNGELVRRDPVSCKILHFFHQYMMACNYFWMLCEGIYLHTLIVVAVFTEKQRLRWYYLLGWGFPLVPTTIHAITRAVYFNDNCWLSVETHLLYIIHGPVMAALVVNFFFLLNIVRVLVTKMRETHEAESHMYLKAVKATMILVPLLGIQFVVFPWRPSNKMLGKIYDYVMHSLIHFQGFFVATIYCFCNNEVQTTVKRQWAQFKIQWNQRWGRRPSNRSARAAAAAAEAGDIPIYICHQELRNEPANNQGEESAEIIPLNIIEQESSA

B1: N^ε1-[2-[2-[2-[[(4S)-4-carboxy-4-(19-carboxynonadecanoylamino)butanoyl]amino]ethoxy]ethoxy]acetyl]-[Arg17,Pro21,Pro27,Pro31,His35]-h-amylin (peptide)
peptide: K([AEEA-γGlu-C20 diacid])CNTATCATQRLANFLRHSSPNFGAIPSSTPVGSHTY-NH2
modifications: disulfide 2-7; N-terminus assumed
SMILES: CC[C@H](C)[C@H](NC(=O)[C@H](C)NC(=O)CNC(=O)[C@H](Cc1ccccc1)NC(=O)[C@H](CC(N)=O)NC(=O)[C@@H]1CCCN1C(=O)[C@H](CO)NC(=O)[C@H](CO)NC(=O)[C@H](Cc1c[nH]cn1)NC(=O)[C@H](CCCNC(=N)N)NC(=O)[C@H](CC(C)C)NC(=O)[C@H](Cc1ccccc1)NC(=O)[C@H](CC(N)=O)NC(=O)[C@H](C)NC(=O)[C@H](CC(C)C)NC(=O)[C@H](CCCNC(=N)N)NC(=O)[C@H](CCC(N)=O)NC(=O)[C@@H](NC(=O)[C@H](C)NC(=O)[C@@H]1CSSC[C@H](NC(=O)[C@@H](N)CCCCNC(=O)COCCOCCNC(=O)CC[C@H](NC(=O)CCCCCCCCCCCCCCCCCCC(=O)O)C(=O)O)C(=O)N[C@@H](CC(N)=O)C(=O)N[C@@H]([C@@H](C)O)C(=O)N[C@@H](C)C(=O)N[C@@H]([C@@H](C)O)C(=O)N1)[C@@H](C)O)C(=O)N1CCC[C@H]1C(=O)N[C@@H](CO)C(=O)N[C@@H](CO)C(=O)N[C@H](C(=O)N1CCC[C@H]1C(=O)N[C@H](C(=O)NCC(=O)N[C@@H](CO)C(=O)N[C@@H](Cc1c[nH]cn1)C(=O)N[C@H](C(=O)N[C@@H](Cc1ccc(O)cc1)C(N)=O)[C@@H](C)O)C(C)C)[C@@H](C)O
notes: also called compound 57
B2: N^ε1-[2-[2-[2-[[(4S)-4-carboxy-4-(19-carboxynonadecanoylamino)butanoyl]amino]ethoxy]ethoxy]acetyl]-[Gly14,Arg17,Pro21,Pro27,Pro31]-h-amylin (peptide)
peptide: K([AEEA-γGlu-C20 diacid])CNTATCATQRLAGFLRHSSPNFGAIPSSTPVGSNTY-NH2
modifications: disulfide 2-7; N-terminus assumed
SMILES: CC[C@H](C)[C@H](NC(=O)[C@H](C)NC(=O)CNC(=O)[C@H](Cc1ccccc1)NC(=O)[C@H](CC(N)=O)NC(=O)[C@@H]1CCCN1C(=O)[C@H](CO)NC(=O)[C@H](CO)NC(=O)[C@H](Cc1c[nH]cn1)NC(=O)[C@H](CCCNC(=N)N)NC(=O)[C@H](CC(C)C)NC(=O)[C@H](Cc1ccccc1)NC(=O)CNC(=O)[C@H](C)NC(=O)[C@H](CC(C)C)NC(=O)[C@H](CCCNC(=N)N)NC(=O)[C@H](CCC(N)=O)NC(=O)[C@@H](NC(=O)[C@H](C)NC(=O)[C@@H]1CSSC[C@H](NC(=O)[C@@H](N)CCCCNC(=O)COCCOCCNC(=O)CC[C@H](NC(=O)CCCCCCCCCCCCCCCCCCC(=O)O)C(=O)O)C(=O)N[C@@H](CC(N)=O)C(=O)N[C@@H]([C@@H](C)O)C(=O)N[C@@H](C)C(=O)N[C@@H]([C@@H](C)O)C(=O)N1)[C@@H](C)O)C(=O)N1CCC[C@H]1C(=O)N[C@@H](CO)C(=O)N[C@@H](CO)C(=O)N[C@H](C(=O)N1CCC[C@H]1C(=O)N[C@H](C(=O)NCC(=O)N[C@@H](CO)C(=O)N[C@@H](CC(N)=O)C(=O)N[C@H](C(=O)N[C@@H](Cc1ccc(O)cc1)C(N)=O)[C@@H](C)O)C(C)C)[C@@H](C)O
notes: also called compound 71
B3: N^ε1-[2-[2-[2-[[(4S)-4-carboxy-4-(19-carboxynonadecanoylamino)butanoyl]amino]ethoxy]ethoxy]acetyl]-[Arg17,Pro21,Pro27,Pro34,His35]-h-amylin (peptide)
peptide: K([AEEA-γGlu-C20 diacid])CNTATCATQRLANFLRHSSPNFGAIPSSTNVGPHTY-NH2
modifications: disulfide 2-7; N-terminus assumed
SMILES: CC[C@H](C)[C@H](NC(=O)[C@H](C)NC(=O)CNC(=O)[C@H](Cc1ccccc1)NC(=O)[C@H](CC(N)=O)NC(=O)[C@@H]1CCCN1C(=O)[C@H](CO)NC(=O)[C@H](CO)NC(=O)[C@H](Cc1c[nH]cn1)NC(=O)[C@H](CCCNC(=N)N)NC(=O)[C@H](CC(C)C)NC(=O)[C@H](Cc1ccccc1)NC(=O)[C@H](CC(N)=O)NC(=O)[C@H](C)NC(=O)[C@H](CC(C)C)NC(=O)[C@H](CCCNC(=N)N)NC(=O)[C@H](CCC(N)=O)NC(=O)[C@@H](NC(=O)[C@H](C)NC(=O)[C@@H]1CSSC[C@H](NC(=O)[C@@H](N)CCCCNC(=O)COCCOCCNC(=O)CC[C@H](NC(=O)CCCCCCCCCCCCCCCCCCC(=O)O)C(=O)O)C(=O)N[C@@H](CC(N)=O)C(=O)N[C@@H]([C@@H](C)O)C(=O)N[C@@H](C)C(=O)N[C@@H]([C@@H](C)O)C(=O)N1)[C@@H](C)O)C(=O)N1CCC[C@H]1C(=O)N[C@@H](CO)C(=O)N[C@@H](CO)C(=O)N[C@H](C(=O)N[C@@H](CC(N)=O)C(=O)N[C@H](C(=O)NCC(=O)N1CCC[C@H]1C(=O)N[C@@H](Cc1c[nH]cn1)C(=O)N[C@H](C(=O)N[C@@H](Cc1ccc(O)cc1)C(N)=O)[C@@H](C)O)C(C)C)[C@@H](C)O
notes: also called compound 58
B4: N^ε1-[2-[2-[2-[[(4S)-4-carboxy-4-(19-carboxynonadecanoylamino)butanoyl]amino]ethoxy]ethoxy]acetyl]-[His14,Arg17,Pro21,Pro27,Pro31]-h-amylin (peptide)
peptide: K([AEEA-γGlu-C20 diacid])CNTATCATQRLAHFLRHSSPNFGAIPSSTPVGSNTY-NH2
modifications: disulfide 2-7; N-terminus assumed
SMILES: CC[C@H](C)[C@H](NC(=O)[C@H](C)NC(=O)CNC(=O)[C@H](Cc1ccccc1)NC(=O)[C@H](CC(N)=O)NC(=O)[C@@H]1CCCN1C(=O)[C@H](CO)NC(=O)[C@H](CO)NC(=O)[C@H](Cc1c[nH]cn1)NC(=O)[C@H](CCCNC(=N)N)NC(=O)[C@H](CC(C)C)NC(=O)[C@H](Cc1ccccc1)NC(=O)[C@H](Cc1c[nH]cn1)NC(=O)[C@H](C)NC(=O)[C@H](CC(C)C)NC(=O)[C@H](CCCNC(=N)N)NC(=O)[C@H](CCC(N)=O)NC(=O)[C@@H](NC(=O)[C@H](C)NC(=O)[C@@H]1CSSC[C@H](NC(=O)[C@@H](N)CCCCNC(=O)COCCOCCNC(=O)CC[C@H](NC(=O)CCCCCCCCCCCCCCCCCCC(=O)O)C(=O)O)C(=O)N[C@@H](CC(N)=O)C(=O)N[C@@H]([C@@H](C)O)C(=O)N[C@@H](C)C(=O)N[C@@H]([C@@H](C)O)C(=O)N1)[C@@H](C)O)C(=O)N1CCC[C@H]1C(=O)N[C@@H](CO)C(=O)N[C@@H](CO)C(=O)N[C@H](C(=O)N1CCC[C@H]1C(=O)N[C@H](C(=O)NCC(=O)N[C@@H](CO)C(=O)N[C@@H](CC(N)=O)C(=O)N[C@H](C(=O)N[C@@H](Cc1ccc(O)cc1)C(N)=O)[C@@H](C)O)C(C)C)[C@@H](C)O
notes: also called compound 61
B5: N^ε1-[2-[2-[2-[[(4S)-4-carboxy-4-(19-carboxynonadecanoylamino)butanoyl]amino]ethoxy]ethoxy]acetyl]-[Arg17,Pro21,Pro27,Pro34]-h-amylin (peptide)
peptide: K([AEEA-γGlu-C20 diacid])CNTATCATQRLANFLRHSSPNFGAIPSSTNVGPNTY-NH2
modifications: disulfide 2-7; N-terminus assumed
SMILES: CC[C@H](C)[C@H](NC(=O)[C@H](C)NC(=O)CNC(=O)[C@H](Cc1ccccc1)NC(=O)[C@H](CC(N)=O)NC(=O)[C@@H]1CCCN1C(=O)[C@H](CO)NC(=O)[C@H](CO)NC(=O)[C@H](Cc1c[nH]cn1)NC(=O)[C@H](CCCNC(=N)N)NC(=O)[C@H](CC(C)C)NC(=O)[C@H](Cc1ccccc1)NC(=O)[C@H](CC(N)=O)NC(=O)[C@H](C)NC(=O)[C@H](CC(C)C)NC(=O)[C@H](CCCNC(=N)N)NC(=O)[C@H](CCC(N)=O)NC(=O)[C@@H](NC(=O)[C@H](C)NC(=O)[C@@H]1CSSC[C@H](NC(=O)[C@@H](N)CCCCNC(=O)COCCOCCNC(=O)CC[C@H](NC(=O)CCCCCCCCCCCCCCCCCCC(=O)O)C(=O)O)C(=O)N[C@@H](CC(N)=O)C(=O)N[C@@H]([C@@H](C)O)C(=O)N[C@@H](C)C(=O)N[C@@H]([C@@H](C)O)C(=O)N1)[C@@H](C)O)C(=O)N1CCC[C@H]1C(=O)N[C@@H](CO)C(=O)N[C@@H](CO)C(=O)N[C@H](C(=O)N[C@@H](CC(N)=O)C(=O)N[C@H](C(=O)NCC(=O)N1CCC[C@H]1C(=O)N[C@@H](CC(N)=O)C(=O)N[C@H](C(=O)N[C@@H](Cc1ccc(O)cc1)C(N)=O)[C@@H](C)O)C(C)C)[C@@H](C)O
notes: also called compound 50

The target of the experiment is T1, human calcitonin receptor. As to the kind of experiment: SPA competition with 125I-calcitonin, membranes of BHK hCTR cells (Assay VII). The procedure:
Membranes were prepared in the following way; the cells were rinsed with PBS and incubated with Versene for approximately 5 min before harvesting. The cells were flushed with PBS and the cell-suspension was centrifuged for 5 min at 1000 rpm. Cells were homogenized (Ultrathurrax) in a buffer containing 20 mM Na-HEPES and 10 mM EDTA (pH 7.4) and centrifuged at 20.000 rpm for 15 min. The resulting pellet was resuspended, homogenized and centrifuged (20.000 rpm, 15 min) in a buffer containing 20 mM Na-HEPES and 0.1 mM EDTA (pH 7.4, buffer 2). The resulting pellet was resuspended in buffer 2 and protein concentration was measured (BCA protein Assay, Pierce). The homogenate was kept cold during the whole procedure. The membranes were kept at −80° C. until use. Assay was performed in a 384 well Optiplate (PerkinElmer) in a total volume of 40 ul. Membranes were mixed with SPA beads. Final concentration of membranes 35 ng/μL final and Final concentration of SPA beads was 0.05 mg/well. Test-compounds were dissolved in DMSO and further diluted in assay buffer (50 mM Hepes, pH 7.4, 1 mM CaCl2, 5 mM MgCl₂, 0.1% OA and 0.02% Tween20). […] The final mixture was incubated for 120 min with shaking at 400 rpm at 25° C. prior to centrifugation (1500 rpm, 10 min). Samples were analyzed on TopCounter™ (Packard). The […] was calculated using (one site binding competition analysis) GraphPad Prism5 as a measure of receptor affinity.
As to B1, the IC50 stood at 15.3 nM.

In the case of B2, the IC50 turned out to be 1.53 nM.

Turning to B3, the IC50 was 9.63 nM.

Turning to B4, the 50% inhibitory concentration (IC50) worked out at 8.11 nM.

For the molecule B5, the IC50 was 1.38 nM.
